Measured values taken from publication doi:10.1101/2024.07.24.604955, “Unraveling the Role of Ctla-4 in Intestinal Immune Homeostasis: Insights from a novel Zebrafish Model of Inflammatory Bowel Disease” (bioRxiv, 2024).

How the values were obtained:
[1] = biological target: T1, Ctla-4 with EGFP-tag (labeled protein of the MST assay) (zebrafish); experiment: MST; Monolith NT.115; labeled proteins (Cd28/Ctla-4 with EGFP-tag) incubated with 16 doubling dilutions of unlabeled Cd80/86 from 3.2 µM, 10 min at room temperature; 25℃, 40% LED, medium MST power
T1 construct: zebrafish Ctla-4 (XM_005167519.4)

[2] = biological target: T2, Cd28 with EGFP-tag (labeled protein of the MST assay) (zebrafish); experiment: as above
T2 construct: zebrafish Cd28; identifier not given
T2 sequence (partner, as listed by the source): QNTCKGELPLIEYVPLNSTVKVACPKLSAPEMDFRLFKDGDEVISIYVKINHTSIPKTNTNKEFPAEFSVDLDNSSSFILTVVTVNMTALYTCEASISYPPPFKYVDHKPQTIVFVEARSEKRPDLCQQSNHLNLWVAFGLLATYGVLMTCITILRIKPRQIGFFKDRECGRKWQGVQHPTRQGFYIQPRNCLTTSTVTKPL

T1 sequence (partner, as listed by the source): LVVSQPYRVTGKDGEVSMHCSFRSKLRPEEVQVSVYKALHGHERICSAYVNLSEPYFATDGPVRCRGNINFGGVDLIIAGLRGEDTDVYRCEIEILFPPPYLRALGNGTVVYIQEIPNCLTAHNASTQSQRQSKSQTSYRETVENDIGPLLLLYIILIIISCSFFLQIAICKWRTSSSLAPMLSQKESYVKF

B1: soluble Cd80/86 (extracellular domain) (domain or fragment)
chain: DNSQPKNISAVVGRSVTFRCPWNLSIPVYRLYIQKLENQPLFINGFNNGKKLPVSPEYQDRTEVNQAELSMEMTNIKLSDEGSYECVVFSSTSSRDIFQINLKVTAEFTTPESKSECSENDGAKKGRSCQMSCSAAGGYPVSDVKWLGLNQSRIRVLQNETAENSTSKTWSVNQTINYTCEHPINVSCDIGGSDSHTITICEAESFPLK
A Kd [1] of 500 nM and a Kd [2] of 2640 nM were found for B1 in this work.
